Non-standard residues stand in square brackets, D forms with d. Groups on a side chain read outwards from the residue. Primed or numbered codes have the meaning given here. No end group written: not given here. *: point of attachment. OCPT = camptothecin (CPT) attached as an ester, CC[C@@]1(O*)C(=O)OCc2c1cc1n(c2=O)Cc2cc3ccccc3nc2-1; Propanoyl(3-maleimido) = O=C1C=CC(=O)N1CCC(=O)*; PEG4′ = tetraethylene glycol; Dab = NCC[C@H](N)C(=O)O; CO′ = not defined here; Dap = NC[C@H](N)C(=O)O; CPT = Camptothecin; AF = auristatin F; Sar = CNCC(=O)O
Molecular target: T1, Recombinant human Cathepsin B (human, UniProt P07858 80-333)
Test: cell-based or functional assay

Binder	Ratio (T1/2 Compound/T1/2 Reference)
RFK (N-terminus acylated with auristatin F (AF); Lys 3 side chain carries PEG4-Mal-Cys-Ac) [Compound 3, AF-Arg-Phe-Lys(PEG4-Mal-Cys-Ac)-OH]	0.11
RKF (N-terminus acylated with auristatin F (AF); Lys 2 side chain carries PEG4-Mal-Cys-Ac) [Compound 1, AF-Arg-Lys(PEG4-Mal-Cys-Ac)-Phe-OH]	0.12
FXKF (DM1-Mal on the N-terminus of Phe; citrulline (Cit); Lys(PEG4-Mal-Cys-Ac)) [Compound 6, DM1-Mal-Phe-Cit-Lys(PEG4-Mal-Cys-Ac)-Phe-OH]	0.02
FKKF (DM1-Mal on the N-terminus of Phe; Lys(PEG4-Mal-Cys-Ac)) [Compound 5, DM1-Mal-Phe-Lys-Lys(PEG4-Mal-Cys-Ac)-Phe-OH]	0.05
FXFK (DM1-Mal on the N-terminus of Phe; citrulline (Cit); Lys(PEG4-Mal-Cys-Ac)) [Compound 7, DM1-Mal-Phe-Cit-Phe-Lys(PEG4-Mal-Cys-Ac)-OH]	0.09

The next lines start with the values.

Ratio (T1/2 Compound/T1/2 Reference)	Binder
0.005	FXKY (DM1-Mcc on the N-terminus of Phe; citrulline (Cit); Lys(PEG5-Ma-Cys-Ac)) [Compound 22, DM1-Mcc-Phe-Cit-Lys(PEG5-Ma-Cys-Ac)-Tyr-OH]
0.09	XKF (X at position 1 is citrulline (Cit); N-terminus acylated with auristatin F (AF); Lys 2 side chain carries PEG4-Mal-Cys-Ac) [Compound 19, AF-Cit-Lys(PEG4-Mal-Cys-Ac)-Phe-OH]
4e-05	XKY (X at position 1 is citrulline (Cit); DM1-Mcc on the N-terminus; Lys 2 side chain carries PEG5-Ma-Cys-Ac) [Compound 23, DM1-Mcc-Cit-Lys(PEG5-Ma-Cys-Ac)-Tyr-OH]

Molecular target: T1, Recombinant human Cathepsin B
Test: cell-based or functional assay
Remark: another data set of the same source

Binder	Ratio (T1/2 Compound/T1/2 Reference)
R[PEG4′]FR[Dab](CO‑CPT)F-OH [Compound 10, Arg-PEG4-Phe-Arg-Dab(CO-CPT)-Phe-OH]	0.1
R[PEG4′]FR[Dap](CO‑CPT)F-OH [Compound 9, Arg-PEG4-Phe-Arg-Dap(CO-CPT)-Phe-OH]	0.63
R[PEG4′]FRS([CO′-CPT])F-OH [Compound 11, Arg-PEG4-Phe-Arg-Ser(CO-CPT)-Phe-OH]	0.2
R[PEG4′]FRE([Sar-OCPT])F-OH [Compound 8, Arg-PEG4-Phe-Arg-Glu(Sar-OCPT)-Phe-OH]	0.19

Other lines, results leading:

Ratio (T1/2 Compound/T1/2 Reference)	Binder
0.14	FKKF (Ac-Cys-Mal-PEG4 at the N-terminus; Lys(Mal-DM1)) [Compound 12, Ac-Cys-Mal-PEG4-Phe-Lys-Lys(Mal-DM1)-Phe-OH]
0.15	{Ac-Cys-Propanoyl(3-maleimido)-PEG4′}-FKK(AF)F-OH [Compound 13, Ac-Cys-Mal-PEG4-Phe-Lys-Lys(AF)-Phe-OH]
0.03	FKKFFK (Ac-Cys-Mal-PEG4 at the N-terminus; Lys(Mal-DM1)) [Compound 28, Ac-Cys-Mal-PEG4-Phe-Lys-Lys(Mal-DM1)-Phe-Phe-Lys-OH]
0.005	FXKY (Ac-Cys-Ma-PEG5 at the N-terminus; citrulline (Cit); Lys(Mcc-DM1)) [Compound 27, Ac-Cys-Ma-PEG5-Phe-Cit-Lys(Mcc-DM1)-Tyr-OH]

Molecular target: T1, Recombinant human Cathepsin B
Test: cell-based or functional assay
Remark: another data set of the same source

Binder	Ratio (T1/2 Compound/T1/2 Reference)
FKKFFKKF (Ac-Cys-Mal-PEG4 at the N-terminus; two Lys(Mal-DM1)) [Compound 29, Ac-Cys-Mal-PEG4-[Phe-Lys-Lys(Mal-DM1)-Phe]2-OH]	0.23
FRKRKF (Ac-Cys-Mal-PEG4 at the N-terminus; Lys(Mal-DM1); Lys(AF)) [Compound 30, Ac-Cys-Mal-PEG4-Phe-Arg-Lys(Mal-DM1)-Arg-Lys(AF)-Phe-OH]	0.07

Molecular target: T1, Recombinant human Cathepsin B
Test: cell-based or functional assay
Remark: another data set of the same source

Binder	Ratio (T1/2 Compound/T1/2 Reference)
XKFKF (AF at the N-terminus; citrulline (Cit); Lys(Mal-DM1); Lys(PEG4-Mal-Cys-Ac)) [Compound 31, AF-Cit-Lys(Mal-DM1)-Phe-Lys(PEG4-Mal-Cys-Ac)-Phe-OH]	0.08

From US20220062371A1 (DEBIOPHARM RESEARCH AND MANUFACTURING S A, published 2022)
